Results: publication PMC6899460, “The Pseudomonas aeruginosa T6SS Delivers a Periplasmic Toxin that Disrupts Bacterial Cell Morphology” (Cell Reports, 2019)

Target: the molecule itself
Assay: SEC-MALS; SEC-MALLS and refractometry; Superdex 75 10/30 column, 20°C, 0.5 ml/min; fractions pooled from two peaks obtained after preparatory size-exclusion chromatography; dimer and monomer

B1: VgrG2b C-terminal domain (VgrG2bC-ter) (domain or fragment)
chain: VGETQRRFVLKQLDGQTAMPNVPYTITMANGEVIEGVTDAEGATQLLQKDAMNIAKVDMKHTKSPASAVAGIAAAVGAAVAVGKLLGGPDAEAGRALSEGEISLAKGVFGDSIDYSTVRLRDEDYVPWQGKDYVMAPNGHIYFGEELRGVADWSLESLQRQGLFIHEMTHVWQHQHGVNVLLVGAYQQARQFLLGDQYAYRLEPGKTLKDYNIEQQGDIVRDYFLEKNEFGEASANSRFAGVLKNFPTGY
notes: VgrG2b of Pseudomonas aeruginosa PAO1, C-terminal domain, residues 770-1,019; Monomeric and dimeric species were both found in solution; also called VgrG2b metallopeptidase domain; source: E. coli BL21 (λDE3) pET28a-vgrG2bC-ter, purified (Ni2+-NTA, SEC); not shown: His6, C-terminal, cleaved
stoichiometry N: 2
